B1: Human concentrative nucleoside transporter 3 (hCNT3, SLC28A3), wild type, purified from High Five insect cells (natural protein, UniProt Q9HAS3 1-616, looked up)
chain: MELRSTAAPRAEGYSNVGFQNEENFLENENTSGNNSIRSRAVQSREHTNTKQDEEQVTVEQDSPRNREHMEDDDEEMQQKGCLERRYDTVCGFCRKHKTTLRHIIWGILLAGYLVMVISACVLNFHRALPLFVITVAAIFFVVWDHLMAKYEHRIDEMLSPGRRLLNSHWFWLKWVIWSSLVLAVIFWLAFDTAKLGQQQLVSFGGLIMYIVLLFLFSKYPTRVYWRPVLWGIGLQFLLGLLILRTDPGFIAFDWLGRQVQTFLEYTDAGASFVFGEKYKDHFFAFKVLPIVVFFSTVMSMLYYLGLMQWIIRKVGWIMLVTTGSSPIESVVASGNIFVGQTESPLLVRPYLPYITKSELHAIMTAGFSTIAGSVLGAYISFGVPSSHLLTASVMSAPASLAAAKLFWPETEKPKITLKNAMKMESGDSGNLLEAATQGASSSISLVANIAVNLIAFLALLSFMNSALSWFGNMFDYPQLSFELICSYIFMPFSFMMGVEWQDSFMVARLIGYKTFFNEFVAYEHLSKWIHLRKEGGPKFVNGVQQYISIRSEIIATYALCGFANIGSLGIVIGGLTSMAPSRKRDIASGAVRALIAGTVACFMTACIAGILSSTP
B2: hCNT3 Y266C/F463C double cysteine mutant (natural protein, human, UniProt Q9HAS3 1-691, looked up)
chain: MELRSTAAPRAEGYSNVGFQNEENFLENENTSGNNSIRSRAVQSREHTNTKQDEEQVTVEQDSPRNREHMEDDDEEMQQKGCLERRYDTVCGFCRKHKTTLRHIIWGILLAGYLVMVISACVLNFHRALPLFVITVAAIFFVVWDHLMAKYEHRIDEMLSPGRRLLNSHWFWLKWVIWSSLVLAVIFWLAFDTAKLGQQQLVSFGGLIMYIVLLFLFSKYPTRVYWRPVLWGIGLQFLLGLLILRTDPGFIAFDWLGRQVQTFLECTDAGASFVFGEKYKDHFFAFKVLPIVVFFSTVMSMLYYLGLMQWIIRKVGWIMLVTTGSSPIESVVASGNIFVGQTESPLLVRPYLPYITKSELHAIMTAGFSTIAGSVLGAYISFGVPSSHLLTASVMSAPASLAAAKLFWPETEKPKITLKNAMKMESGDSGNLLEAATQGASSSISLVANIAVNLIAFLALLSCMNSALSWFGNMFDYPQLSFELICSYIFMPFSFMMGVEWQDSFMVARLIGYKTFFNEFVAYEHLSKWIHLRKEGGPKFVNGVQQYISIRSEIIATYALCGFANIGSLGIVIGGLTSMAPSRKRDIASGAVRALIAGTVACFMTACIAGILSSTPVDINCHHVLENAFNSTFPGNTTKVIACCQSLLSSTVAKGPGEVIPGGNHSLYSLKGCCTLLNPSTFNCNGISNTF

Tests used:
SEC = biological target: the molecule itself; assay: SEC
cross-linking = biological target: the molecule itself; assay: cross-linking

Protein	stoichiometry N (SEC)	stoichiometry N (cross-linking)
B1	3	
B2		3
